Patent US20050015820A1

Experiments:
[1] = molecular target: melanocortin 3 receptor (MC3-R) (mouse) (UniProt P33033); assay: cell-based or functional assay
[2] = molecular target: µ opioid receptor (MOP-R) (mouse) (UniProt P42866); assay: cell-based or functional assay
Chain of µ opioid receptor (MOP-R) (mouse) (P42866 whole entry): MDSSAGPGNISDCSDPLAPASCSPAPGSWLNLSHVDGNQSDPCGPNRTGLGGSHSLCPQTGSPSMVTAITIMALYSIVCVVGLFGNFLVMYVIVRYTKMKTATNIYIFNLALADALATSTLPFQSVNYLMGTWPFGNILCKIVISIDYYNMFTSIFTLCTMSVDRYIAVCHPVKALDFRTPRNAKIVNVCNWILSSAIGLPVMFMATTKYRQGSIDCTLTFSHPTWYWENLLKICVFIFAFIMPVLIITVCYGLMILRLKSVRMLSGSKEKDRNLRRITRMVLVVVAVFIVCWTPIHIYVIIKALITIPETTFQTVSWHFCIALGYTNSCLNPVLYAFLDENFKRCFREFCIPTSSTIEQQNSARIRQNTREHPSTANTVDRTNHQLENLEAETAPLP

Chain of melanocortin 3 receptor (MC3-R) (mouse) (P33033 whole entry): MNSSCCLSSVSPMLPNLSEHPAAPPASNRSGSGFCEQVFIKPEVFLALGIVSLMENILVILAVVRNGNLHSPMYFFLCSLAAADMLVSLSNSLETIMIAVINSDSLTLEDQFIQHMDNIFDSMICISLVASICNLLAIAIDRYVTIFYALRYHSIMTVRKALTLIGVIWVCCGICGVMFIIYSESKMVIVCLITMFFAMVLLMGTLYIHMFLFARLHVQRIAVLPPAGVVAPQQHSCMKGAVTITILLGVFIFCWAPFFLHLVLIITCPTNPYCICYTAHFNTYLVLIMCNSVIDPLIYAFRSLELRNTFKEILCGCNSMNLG

hyperpolarization of POMC neurons (7 nM, 9 of 15 neurons) [1]	increase of the frequency of GABAergic IPSCs recorded from POMC neurons (7 nM, 3 of 4 neurons) [1]	hyperpolarization of the membrane potential of POMC cells (Met-Enk 30 µM, whole cell recording, n=10) [2]	Substance
-5.5 mV	280%	–	D-Trp^8-γMSH (peptide)
–	–	10 to 20 mV	met-enkephalin (from UniProt P01210 100-104) (peptide)
